# Experimental data as given in US7741110.
# Assays:
# [1] = molecular target: VP64-C7-ER (Zif268 variant C7 + mER LBD G525R) (synthetic) (UniProt P08046); assay: cell_activity; conditions: HeLa luciferase, 4-OHT-induced
# [2] = molecular target: VP64-C7-PR (Zif268 variant C7 + hPR LBD aa645-914) (synthetic) (UniProt P08046); assay: cell_activity; conditions: HeLa luciferase, RU486-induced
# VP16-C7-ER (synthetic) = VP16-C7-ER (synthetic) (UniProt P08046); assay: cell_activity; conditions: 4-OHT-induced, HeLa; no response to RU486
# VP16-C7-PR (synthetic) = VP16-C7-PR (synthetic) (UniProt P08046); assay: cell_activity; conditions: RU486-induced, HeLa; no response to 4-OHT
# [3] = tested on: E2C-RE-VP64 (hRXRa + Drosophila EcR LBDs) (synthetic); assay: cell_activity; conditions: Ponasterone A-induced; significant basal activity
# [4] = tested on: B3 three-finger zinc finger protein (Sp1C framework, designed) (synthetic); assay: EMSA; conditions: Zn buffer (90 uM ZnCl2, 90 mM KCl, 1 mM MgCl2), 3 h room temperature
sequence,measurement,setting,value
"GAGGGTACCGCGTGGGCGAAAAAGCGTGGGCGAGTCGACTCTAGAGGGTATATAATGG (double strand) [C7 direct repeat, 3 bp spacer, TATA reporter]",activity,[1],9.5 fold
same,activity,[2],3.9 fold
GCGTGGGCG (double strand) [10xC7-TATA-luc],activity,VP16-C7-ER (synthetic),43 fold
same,activity,VP16-C7-PR (synthetic),26 fold
GGGGCCGGAGCCGCAGTG (double strand) [E2C-TATA-luc single E2C site],activity,[3],3 fold
GGAGGGGAC [B3 target site oligonucleotide],Kd,[4],15 nM
